Results on 34 molecules are retold here after patent US20090221680, “Aptamers that bind thrombin with high affinity” (published 2009).

Positions count from the first letter of the chain named.

B1: AMX(398)_E8 (ssDNA)
DNA: TCCCTATCGACCGGGGTTCTTTCGTGGTTCGGGTGGCTGAGGATCGATC
B2: AMX(398)_D3 (ssDNA)
DNA: TCCCATGATCGGGTCGGTATTTGTTGGTCAGGGTGGCTGAGGATCGATC
B3: AMX(398)_A9 (ssDNA)
DNA: TCCCGTCGAGCCGGGGTATGATTATGGGTGGGGTGGCTGAGGATCGATC
B4: AMX(398)_E7 (ssDNA)
DNA: TCCCTTGATCTGGGGTGCGTTATTGTGGTTCGGGTGGCTGAGGATCGATC
B5: AMX(398)_E1 (ssDNA)
DNA: TCCCATCGATCCGGGGTATTCTTATTTCTGGGTGGCTGAGGATCGATC
B6: AMX(399)_G12 (ssDNA)
DNA: TCCCGGATCCTCGTGGGTATTGTTGGGTTGGGTGGCTGAGGATCGATC
B7: AMX(398)_A6 (ssDNA)
DNA: TCCCATCGATTTGGGGTATGTTATGGGCTCGGGTGGCTGAGGATCGATC
B8: AMX(399)_H6 (ssDNA)
DNA: TCCCGGAGATCTGAGGTGTTTTATTGGTTTGGGTGGCTGAGGATCGATC
B9: AMX(398)_E5 (ssDNA)
DNA: TCCCGATCGGACGTGGTGGGTTACTTCTGGGTGGCTGAGGATCGATC
B10: AMX(398)_C11 (ssDNA)
DNA: TCCTGTCGATCGGTACGTTTTCGTTTCTGGGTGGCTGAGGATCGATC
B11: AMX(398)_D7 (ssDNA)
DNA: TCCCTTGTCGATTCTGGTATGTTTTGGTCCGGGTGGCTGAGGATCGATC
B12: AMX(398)_C2 (ssDNA)
DNA: TCCCAAGGATCCGGGGTAGTTAGTGGCTGAGGTGGCTGAGGATCGATC
B13: AMX(398)_B12 (ssDNA)
DNA: TCCCGATTATCCGTTGGTATTGTTGGTCTGGGTGGCTGAGGATCGATC
B14: AMX(398)_C1 (ssDNA)
DNA: TCCCAACGATCTGTGGTTTTTTTGTTCTGGGTGGCTGAGGATCGATC
B15: AMX(398)_B3 (ssDNA)
DNA: TCCCAGATGTGATCCGTATCCTGGTTTGGTTGGGTGGCTGAGGATCGATC
B16: AMX(399)_H8 (ssDNA)
DNA: TCCCTGGTATCGTATCCAAAGGGGTGGTGTGGGTGGCTGAGGATCGATC
B17: AMX(398)_A7 (ssDNA)
DNA: TCCCTATCGAGCTGTGGTAGTATTCTGGTTTGGGTGGCTGAGGATCGATC
B18: AMX(399)_G8 (ssDNA)
DNA: TCCCATCGATCTGTGGTGGTTTTGTGGCTTGGGTGGCTGAGGATCGATC
B19: AMX(398)_A2 (ssDNA)
DNA: B18 DNA with C7T, C28T
B20: AMX(398)_B10 (ssDNA)
DNA: TCCCTCGATCTTGGGGTACTATAGTGGTGTGGGTGGCTGAGGATCGATC
B21: AMX(399)_H1 (ssDNA)
DNA: TCCCATCGAACCTCGAGGGTATTGTTGGTTTGGGTGGCTGAGGATCGATC
B22: AMX(398)_C12 (ssDNA)
DNA: TCCCTGCAATCGGTGCTCGAGAGGTTGGGTGGGTGGCTGAGGATCGATC
B23: AMX(399)_G9 (ssDNA)
DNA: TCCCGTGAGAGCTGGGGTGTTTATATGGGTCGGGTGGCTGAGGATCGATC
B24: AMX(398)_A8 (ssDNA)
DNA: TCCCATCGGTCCGGGGTAATTTACTGGGTCGGGTGGCTGAGGATCGATC
B25: AMX(399)_H7 (ssDNA)
DNA: TCCCGGTTGTCGATTCTGGTATTGTTGGGCTGGGTGGCTGAGGATCGATC
B26: AMX(398)_D5 (ssDNA)
DNA: TCCCAGCGGTCCTAATGGGTAGTGTTGGTTTGGGTGGCTGAGGATCGATC
B27: AMX(398)_B1 (ssDNA)
DNA: TCCCAATCGAGCCGGGGTTTGTTTGTTCTGGGTGGCTGAGGATCGATC
B28: AMX(398)_E6 (ssDNA)
DNA: TCCCATCGAGACGGGGTGTCTTTTGTGGCTTGGGTGGCTGAGGATCGATC
B29: AMX(398)_B5 (ssDNA)
DNA: TCCCTGATCCTTAGGCTAGGTTGGGTGGGGTGGTGGCTGAGGATCGATC
B30: AMX(399)_G11 (ssDNA)
DNA: TCCCCATCGATCCTGGTCTCTTTTGTTCTGGGTGGCTGAGGATCGATC
B31: AMX(398)_C9 (ssDNA)
DNA: TCCCGATCGTTTCGTGGGGTAGTGTTGGTTGGGGTGGCTGAGGATCGATC
B32: AMX(398)_C6 (ssDNA)
DNA: TCCCATGATTGGCCGGGGTGTCTTTTGGGTCGGGTGGCTGAGGATCGATC
B33: AMX(398)_D1 (ssDNA)
DNA: TCCCGATTTGAGTTTAGTAGGGTGGGTAGGATGGTGGCTGAGGATCGATC
B34: AMX(398)_A12 (ssDNA)
DNA: TCCCTGGAGATCCGGGGTAGTATACTGGTTTGGGTGGCTGAGGATCGATC

For the first series, the target named is thrombin (alpha-thrombin) (Homo sapiens, UniProt P00734;P00734 P00734:315-363,P00734:364-622). Description: filter; 10 nM thrombin.
Details: not given
Regarding B1, the binding signal worked out at 26.4 % bound.

In turn, B2 returned a binding signal of 20 % bound.

The molecule B3 showed a binding signal of 28.3 % bound.

As for B4, the binding signal was determined as 27.9 % bound.

B5: the binding signal is 23.4 % bound.

As for B6, the binding signal is 40.6 % bound.

B7 showed a binding signal of 31.1 % bound.

In turn, B8 came in with a binding signal of 8.48 % bound.

As to B9, the binding signal was 25.6 % bound.

Take B10: the binding signal was determined as 35.1 % bound.

With B11, the binding signal came to 35 % bound.

B12 showed a binding signal of 0.2 % bound.

Regarding B13, the binding signal came out at 20.1 % bound.

B14 gave a binding signal of 35.8 % bound.

As for B15, the binding signal turned out to be 17.5 % bound.

B16 displayed a binding signal of 23.3 % bound.

With B17, the binding signal was found to be 26.5 % bound.

B18 gave a binding signal of 27.6 % bound.

B19 returned a binding signal of 26.7 % bound.

As for B20, the binding signal amounted to 26.8 % bound.

Regarding B21, the binding signal was 21.2 % bound.

B22 came in with a binding signal of 22.8 % bound.

Turning to B23, the binding signal turned out to be 21.3 % bound.

Take B24: the binding signal came to 40 % bound.

Take B25: the binding signal was 38.1 % bound.

B26 came in with a binding signal of 12 % bound.

In turn, B27 registered a binding signal of 31.3 % bound.

In turn, B28 returned a binding signal of 29.5 % bound.

Take B29: the binding signal came to 12.5 % bound.

As for B30, the binding signal turned out to be 12.8 % bound.

B31 returned a binding signal of 20.7 % bound.

Molecule B32 returned a binding signal of 28 % bound.

B33 gave a binding signal of 20.7 % bound.

In the case of B34, the binding signal stood at 35.4 % bound.

The next series has as its target prothrombin (Homo sapiens, UniProt P00734 P00734:44-622). Description: filter; 50 nM prothrombin. To be noted: tags: Athens Research. As for the experimental part:
Dot blot binding assays were performed throughout the selections to monitor the protein binding affinity of the pools. Trace ³²P-labeled RNA was combined with a dilution series of human Thrombin (1 nM-1000 nM) and incubated at room temperature for 30 minutes in 1×DPBS (w/ Ca²⁺ and Mg²⁺) (Gibco, Catalog #14040, Invitrogen, Carlsbad, Calif.) plus 0.1 mg/ml BSA in a final volume of 30 μl. The binding reactions were analyzed by nitrocellulose filtration using a Minifold I dot-blot, 96-well vacuum filtration manifold (Schleicher & Schuell, Keene, N.H.). A three-layer filtration medium was used, consisting (from top to bottom) of Protran nitrocellulose (Schleicher & Schuell, Keene, N.H.), Hybond-P nylon (Amersham Biosciences, Piscataway, N.J.) and GB002 gel blot paper (Schleicher & Schuell, Keene, N.H.). RNA that is bound to protein is captured on the nitrocellulose filter, whereas the non-protein bound RNA is captured on the nylon filter. The gel blot paper was included simply as a supporting medium for the other filters. Following filtration, the filter layers were separated, dried and exposed on a phosphor screen (Amersham Biosciences, Piscataway, N.J.) and quantified using a Storm 860 Phosphorimager® blot imaging system (Amersham Biosciences, Piscataway, N.J.).
Based on pool binding monitored throughout the selections as described above, Round 9 Pools from both Selection #2 and #3 were also cloned using a TOPO TA Cloning kit (Invitrogen, Carlsbad, Calif.) according to manufacturer's instructions, and sequenced. Of the 136 sequences obtained from Round 9 of both selections, 130 unique sequences were selected for assaying in a single-point dot blot screen against thrombin and prothrombin to test for selective binding to thrombin. Clones were ordered from IDT (Coralville, Iowa) at 25 μmole synthesis scale. Clone transcripts were 5′ end labeled with γ̅³²P ATP and spin purified with Centrisep columns (Princeton Separations, Adelphia, N.J.) to remove excess label. Trace amounts of labeled clone were incubated with +/−10 nM Thrombin (or +/−50 nM prothrombin) and 0.1 mg/ml BSA in a total volume of 30 μl 1×DPBS (w/ Ca²⁺ and Mg²⁺) (Gibco, Catalog #14040, Invitrogen, Carlsbad, Calif.) for 30 minutes. Post incubation, the binding reaction applied the dot-blot binding assay apparatus previously described.
In turn, B1 yielded a binding signal of 26.7 % bound.

B2 displayed a binding signal of 20.8 % bound.

Regarding B3, the binding signal came out at 29.7 % bound.

In turn, B4 displayed a binding signal of 20.3 % bound.

For the molecule B5, the binding signal was determined as 20.9 % bound.

Regarding B6, the binding signal was found to be 41.1 % bound.

B7 came in with a binding signal of 31.3 % bound.

Turning to B8, the binding signal worked out at 6.32 % bound.

Consider B9, for which the binding signal was 25.4 % bound.

With B10, the binding signal is 36.7 % bound.

On to B11, for which the binding signal was found to be 34.6 % bound.

Molecule B12 yielded a binding signal of 0.66 % bound.

For B13, the binding signal turned out to be 20.2 % bound.

On to B14, for which the binding signal came to 37 % bound.

Molecule B15 showed a binding signal of 16.5 % bound.

Consider B16, for which the binding signal is 14.3 % bound.

For the molecule B17, the binding signal was determined as 25.4 % bound.

B18: the binding signal was determined as 25.9 % bound.

B19 yielded a binding signal of 28.4 % bound.

In turn, B20 returned a binding signal of 25.7 % bound.

For the molecule B21, the binding signal came to 20.4 % bound.

In turn, B22 yielded a binding signal of 15.5 % bound.

B23: the binding signal came out at 22.5 % bound.

B24 yielded a binding signal of 43.9 % bound.

As to B25, the binding signal is 36.1 % bound.

Turning to B26, the binding signal turned out to be 12.9 % bound.

The molecule B27 returned a binding signal of 32.7 % bound.

Regarding B28, the binding signal amounted to 30.3 % bound.

For B29, the binding signal turned out to be 8.27 % bound.

Take B30: the binding signal turned out to be 11.8 % bound.

Molecule B31 registered a binding signal of 20.7 % bound.

B32 came in with a binding signal of 11.6 % bound.

In turn, B33 yielded a binding signal of 11.8 % bound.

The molecule B34 registered a binding signal of 37.5 % bound.
